Test: yeast display, Sf9 membrane polyspecificity reagent, FACS + sequencing; frameworks hold sequencing errors
Procedure, shortened: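 Using colony PCR, genes from sorted yeast display clones were amplified, then sequenced on MiSeq at 2 × 250 and filtered by CDR length. The clones had been stained with 10% biotinylated, detergent-solubilized Sf9 membrane reagent for 1 hour at 4 °C and sorted by FACS into low and high (top ~1%) gates on anti-HA and streptavidin fluorescence. Polyreactivity labels come from the gate of origin.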

| Sequence | polyreactivity (PSR sort gate) |
| --- | --- |
| QVQLEESGGGLVQAGGSLRLSCAASGLIFRYYVMGWYRQAPGKERELVAGITSSGGSTYYADSVKGRFTISRDNAKNTVYLQMNSLKPEDTAVYYCNKGGISGRDYWGQGTQVTVSS | high polyreactivity |
| QVQLEESGGGLVQAGGSLRLSCAASGLIFSAYAMGWYRQAPGKERELVAAIRTGGSTYYADSVKGRFTFSRDNAKNTVYLQMNSLKPVDTAVYYCAASQKGYFYYNVYYWGQGTQVTVSS | high polyreactivity |
| QVQLEESGGGLVQAGGSLRLSCAASGLIIRAYAMGWSRQAPGKERELVAAITSSSGSTYYADSVKGRFTISRDNGKNSVYLQMNSLNPEDTAVYYCNAYSTFGWYDYWGQGTQVTVSS | low polyreactivity |
| QVQLEESGGGLVQAGGSLRLSCAASGLISVWYVMGWYRQAPGKERELVAAIRYGGGRTYYADSVKGRFTISRDNAKNTVYLQMNSLKPEDTAVYYCNARPYRGTYGYWGQGTQVTVSS | high polyreactivity |
| QVQLEESGGGLVQAGGSLRLSCAASGLTFAQNAMGWYRQAPGKEREMVAAITSSGGRTYYADSVKGRFTISRDNANNTVYLQMNSLKPEDTAVYDCNVRYYRYGYTYGYWGQGTQVTVSS | high polyreactivity |
| QVQLEESGGGLVQAGGSLRLSCAASGNIFFVYDMGWYRQAPGKERELVAAISWSGGSTYADSVKGRFTISRDNAKNTVYLQMNSLKPEDTAVYYCAAARYAYKHAFEYWGQGTQVTVSS | low polyreactivity |
| QVQLEESGGGLVQAGGSLRLSCAASGNIFSLNGMGRYRQAPGKEREFVAAITWSVGSTYYADSVKGRFSISRDNAKKTVYLQMNSLKPEDTAVYYCAATVSDLYKNEYYYWGQGTQVTVSS | low polyreactivity |
| QVQLEESGGGLVQAGGSLRLSCAASGNIFVSYAMGWYRQAPGKERELVAAISKSGGSTYYADSVKGRFTISRDNAKNTVYLQMNSLKPEDTAVYYCAARWYNRVKYQKYNYWGQGTQVTVSS | high polyreactivity |
| QVQLEESGGGLVQAGGSLRLSCAASGNTLGPYAMGWYRQATGKERELVAAITWSGGITDYADYVKGRFTISRDNAKNTVYLQMNSLKPEDTAVYYCNSGPSLGIFQGTSVGLRYDYWGQGTQVTLSS | low polyreactivity |
| QVQLEESGGGLVQAGGSLRLSCAASGRIFGYYPMGWYRQATGKERELVAGISRSGGSTYYADSVKGRFTISRDNAKNTVFLQMISLKPEDTAVYYCAKRVSYYGRYRPYDYWGQGTQVTVSS | high polyreactivity |
| QVQLEESGGGLVQAGGSLRLSCAASGRIFPYYPMGWYRQAPGKETELVATISGGGSTYYADSVKGRFTISRDNAKNTFYLQMNSLKPEDTAVYYCSARSWLRWASTPQWYRYEYWGQGTQVTVSS | low polyreactivity |
| QVQLEESGGGLVQAGGSLRLSCAASGRIFRPNAMGWYRQAPGKERELVAAISSGGSTYYADSVKGRFTISRDNAKNTVYLQMNSLKPEDTAVYYCAARSRGYDIRYGYWGQGTQVTVSS | high polyreactivity |
| QVQLEESGGGLVQAGGSLRLSCAASGRIFSSYAMGWYRQAPGKERELVAAISSSGGRTYYADSVKGRFTISRDNAKNSVYLQMNSLKPEDTAVYYCARVTTGGYEYWGQGTQVTVSS | high polyreactivity |
| QVQLEESGGGLVQAGGSLRLSCAASGRIFWWYGMGWYREAPGKERELVASITYSGVSTYYADSVKGRFTISRDNAKNTVYLQMNSLTPEDTAVYYCAADRSRYFSYKYDYWGQGTQVTVSS | high polyreactivity |
| QVQLEESGGGLVQAGGSLRLSCAASGRIFYRYAMGWYRQAPGKERELVAAISWSGGSTNYADSVRGRFTISRDNAKNTVYLQMNSLKPEDTAVYYCAAKYRSIRESATYYYWGQGTQVTVSS | high polyreactivity |
| QVQLEESGGGLVQAGGSLRLSCAASGRIHVYTMGWSRQAPGKERELVATITWSGTSTNYADSVKGRFTISRDNAKNTVYFQMNSLKPEDTAVYYCAADISGVLSVSNVRGFDYWGQGTQVTVSS | low polyreactivity |
| QVQLEESGGGLVQAGGSLRLSCAASGRNFTYNTMGWYRQAPGKERELVAAITSGGSTYYADSVKGRFTSSRDNAKNTVYLQMNSLKPEDTAVYYCAKRSWAYTDYFVSEYYWGQGTQVTVSS | high polyreactivity |
| QVQLEESGGGLVQAGGSLRLSCAASGRNFYYNAIGWYRQAPGKERELVATITRAGGTYYADSVKGRFTISRDNAKNTVYLQMNSLKPEDTAVYYCAKRHPIVDDYKGDYWGQGTQVTVSS | low polyreactivity |
| QVQLEESGGGLVQAGGSLRLSCAASGRNISRNAMGGYRQPPGKERELVAAITQSGTSTYYADSVKGRFTLSRDNAKNTVYLQMKSLIPEDTAVYYCNAYRQYRYDYWGQGSQVTVSS | low polyreactivity |
| QVQLEESGGGLVQAGGSLRLSCAASGRTFKLNAMGWYRQAPGKERELVAAISRNGGSTYYADSVKGRFTISRDNAKNTVYLQMNSLKPEDTAVYYCAAVRHGVSLAGYYWGQGTQVTVSS | high polyreactivity |
| QVQLEESGGGLVQAGGSLRLSCAASGRTFYIYVMGWYRPAPGKERELVASITKRVGGTFYADSVKGRFTISGDNAKNTVYLQMNSLKPEDTAVYYCNARARKSIRVGGYNYWGQGTQVTVSS | high polyreactivity |
| QVQLEESGGGLVQAGGSLRLSCAASGRTFYPNAMGWYRQAPGKERELVAAITRSGGRTYYADSVKGRFTISRDNAYYTVYLQMNSLKPEDSAVYYCNADLYYLYYKYEYWGQGTQVTVSS | low polyreactivity |

| Sequence | polyreactivity (PSR sort gate) |
| --- | --- |
| QVQLEESGGGLVQAGGSLRLSCAASGSIFFSYAMGWYRQAPGKERELVAAISSGGSTYYADSVKGRFTISRDNAKNTVYLQMNSLKPEDTAVYYCAARGYRLVPVDFYYWGQGTQVTVSS | low polyreactivity |
| QVQLEESGGGLVQAGGSLRLSCAASGSIFGFYMGWDRQAPRKEREMVAAISGSGGNTYYADSVKGRFTISRDNAKNTVYLQMNSQKPEDNAVYYCAARGYVWNIGRYYWGQGTQVTVSW | high polyreactivity |
| QVQLEESGGGLVQAGGSLRLSCAASGSIFHYYTMGWYRQAPGKERELVAAITSSGGSTYYADSVKGRFTISRDNAKNTVYLQMNSLKPEDTAVYYCNKVRYRGYLYVPIYVGYNYWGQGTQVTVSS | high polyreactivity |
| QVQLEESGGGLVQAGGSLRLSCAASGSIFNRYAMGWYRQAPGKEWELVAAISRSGGRTYYADSVKGRFTISRDNAKNTVYLQMNSLKPEDTAVYYCAADKYYRQHEYDYLGQGTQVTVSS | high polyreactivity |
| QVQLEESGGGLVQAGGSLRLSCAASGSIFPHYAMRWNRQAPGKERELVAAISRSGTSTYYADSVKGRFPISRDNAKNTVYLQMNSLKPEHTAVYYCNAYQVYTRTYGYWGQGTQVTVSS | high polyreactivity |
| QVQLEESGGGLVQAGGSLRLSCAASGSIFRKYAMVSYRQAPGKERELVAAIRSSGGSTYYADSVKGRFTISRDNANNTVYLQMNSLKPEDTAVYYCAARYYRPSRYDYWGQGTQVTVSS | high polyreactivity |
| QVQLEESGGGLVQAGGSLRLSCAASGSIFRRNVMGWYRQAPGKERELVAAISWSGDRTYYADSVKGRFTISRDNAKNTVYLQMNSLKPVGTAVYYCAAANASPRRYGQYDYWGQGTQVTVSS | high polyreactivity |
| QVQLEESGGGLVQAGGSLRLSCAASGSIFSPNAMGWYRQAPGKERELVAAIDTRDGTTYYADSVKGRFTISRDNAKNTVYLQMNSLKPEDTAVYYCAADQLVGERDYWGQGTQVTVSS | low polyreactivity |
| QVQLEESGGGLVQAGGSLRLSCAASGSIFSRNAMGLYRQAPGTERELVAVITRSGSTNYADSVKGRFTISRDNAKNTVYLQKKSLTPQDTAVYYCNADQDAYYLVSIATYDYWGQGTQVTVSS | low polyreactivity |
| QVQLEESGGGLVQAGGSLRLSCAASGSIFVTNVMGWYRQAPGKERELVAVINSGGRTYYADSVKGRFTISRDNAKNTVYLQMNSLKPEDTAVYYCAKDSWSSYPSLYPEFDYWGQGTQVTVSS | low polyreactivity |
| QVQLEESGGGLVQAGGSLRLSCAASGSIIWSYAMGWYRQAPGKERELVAVINWSGGSTYYADSVKGRFTISRDNAKNTVYLQMNSLKPEDTAVYYCNKDLGPTKRPFTFDYWGQGTQVTVSS | low polyreactivity |
| QVQLEESGGGLVQAGGSLRLSCAASGSISYYYGMGWYRQAPGKERELVAAISTRGGSTYYADSVKGRFTISRDNAKNTVYLQMNSLKPEDTAVYYCNKVYYKRFYYWGQGTQVTVSS | high polyreactivity |
| QVQLEESGGGLVQAGGSLRLSCAASGSIYTYTMGWYRQAPGKERELVAAISWNGGRTYYADSVKGRFTISRDNAKNTVYLQMNSLKPEDTAVYYCNAAISYSYGYWGQGTQVTVSS | high polyreactivity |
| QVQLEESGGGLVQAGGSLRLSCAASGSTFDRYGMGWYRQAHWKERELVAAINSGDITNYADSVKGRFTISRDNAKNTVYLQMNSLKPEDTAVYYCAATQSRYYSDDPYYYWGQGTQVTVSS | low polyreactivity |
| QVQLEESGGGLVQAGGSLRLSCAASGSTFKYYAMGWYRQAPGKERELVAAISWSGGSTYYADSVKGRFTISRDNAKNTVYLQMNRLKPEDTAVYYCNKLIYDEDEYWGQGTQVTVSS | high polyreactivity |
| QVQLEESGGGLVQAGGSLRLSCAASGSTFLRYAIGWYRQAPGKEMELVAAITASGGSTFYADSVKGRFTISRDYAKNTVYLQMNSLKPEDTPVYYCAADVSYIGKYSHDLWIYGYYYWGQGTQVTVSS | low polyreactivity |
| QVQLEESGGGLVQAGGSLRLSCAASGSTFSRYAMGWYRQAPGKERELVAAISSSGGGTYYADSVKGRFTISRDNAKNTVYLQMNSLKPEDTAVYYCAAKRVHGATGYWGQGTQVTVSS | high polyreactivity |
| QVQLEESGGGLVQAGGSLRLSCAASGSTFSSNVMGWYRQAPGKERELVAAITGSGSRTYYADSVKGRFTISRDNAKNTVYLQMNSLKPEDTAVYYCNTKGRSRETYGYDYWGQGTQVTVSS | high polyreactivity |
| QVQLEESGGGLVQAGGSLRLSCAASGSTFSYYAMGWYRQAPGKERELVAAITYSVGSTYYADSVKGRFTISRDNAKNTVYLQMNSLKPEDTAVYYCNKRYYYSRANYPYDYWGQGTQVTVSS | low polyreactivity |
| QVQLEESGGGLVQAGGSLRLSCAASGSTFVYNPMGWYRQAPGKETELVAVITYRGGRTYSADSVKGRFTISRDYAKNSVYLQMNSLKPEDTAVYYCAKRVYGSKVRGYDYWGQGTQVTVSS | high polyreactivity |
| QVQLEESGGGLVQAGGSLRLSCAASGSTFYSYVMGWYRQAPGKERELVAAISSIGGSTYYADSVKGRFTISRDNAKNTVYLQMNSLKPEDTAVYYCAAEPPGSTYEGGYWGQGTQVTVSS | low polyreactivity |

From the nanobody polyreactivity screen of Harvey et al. (2022)
